Results reported in article PMC5861452.

B1: RNA 1 (consensus sequence 1) (ssRNA)
RNA: GGCUGAGGCAGG
B2: RNA 2 (consensus derived) (ssRNA)
RNA: GGGUGGGGGUGG
B3: RNA 3 (minimal GRE) (ssRNA)
RNA: UGUUUGUUUGUCCC
B4: RNA 6 (A15) (ssRNA)
RNA: AAAAAAAAAAAAAAA

What follows are binders tested against NS5A domain 1+ (WT) (Hepatitis C virus (replicon plasmid …, UniProt Q9WMX2 2005-2221)) (assay: fluorescence polarization).
NS5A domain 1+ (WT) (Hepatitis C virus, sequence (Q9WMX2 2005-2221): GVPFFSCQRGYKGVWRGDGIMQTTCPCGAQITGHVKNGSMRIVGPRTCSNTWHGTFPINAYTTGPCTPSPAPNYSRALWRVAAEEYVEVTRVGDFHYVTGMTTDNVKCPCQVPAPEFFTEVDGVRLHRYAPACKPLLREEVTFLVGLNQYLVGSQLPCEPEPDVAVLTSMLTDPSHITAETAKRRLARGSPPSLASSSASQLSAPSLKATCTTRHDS

| Binder | Kd [nM] |
| --- | --- |
| B1 | 10 ± 1.5 |
| B2 | 20 ± 2.7 |
| B3 | 100 ± 10 |
| B4 | 1000 ± 150 |
